We go through one substance from article PMC10248529.

Assay [1] concerns the target HAx3-tagged Cho1 (phosphatidylserine synthase from Candida albicans) (Candida albicans). In words: native gel or EMSA; BN-PAGE and anti-HA Western blot of SMA2000-solubilised membrane fractions (SMALPs), 1-4% SMA2000, 30 or 60 min, 37 °C. For orientation: Mobility shift assays separate free from complexed probe on a gel.
Assay [2] shares this target. In words: native gel or EMSA; BN-PAGE and anti-HA Western blot of Cho1-HAx3 pulled down with anti-HA beads and eluted harshly: 50 mM NaOH + 0.05% digitonin, then 1 M Tris pH 8.5.

For orientation: stoichiometry N means the number of molecules, sites or subunits per partner or assembly. In the case of “HAx3-tagged Cho1 (phosphatidylserine synthase from Candida albicans) (from UniProt A0A1D8PF32 1-273) (enzyme)”, the stoichiometry N in assay [1] and in assay [2] was 2 throughout.
